Assay: yeast display, Sf9 membrane polyspecificity reagent, FACS + sequencing; frameworks hold sequencing errors
In short: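 Galactose-induced (36–48 hours) yeast carrying a synthetic nanobody display library were exposed to 10% biotinylated, detergent-solubilized Sf9 membrane reagent at 4 °C for 1 hour. FACS followed streptavidin microbead enrichment, using low and high (top ~1%) gates for expression (anti-HA) and reagent binding (streptavidin). Colony PCR, MiSeq 2 × 250 sequencing and CDR-length filtering followed. Labels for polyreactivity reflect the gate of origin.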

With “QVQLVESGGGLVQAGGSLRLSCAASGSIFVGNAMGWYRQAPGKQRELVATISWSGGSTYYADSVKGRFTISRDNAKNTVYLQMNSVKPEDTAVYYCNAVYVSSFTGHDYWGQGTQVTVSS” the “polyreactivity (PSR sort gate)” value was “low polyreactivity”.

In the case of “QVQLVESGGGLVQAGGSLRLSCAASGFIFSHYAMGWYRQAPGKERELVAAISRNGGSTYYADSVKGRFTISRDNAKNTVYLQMNSLKPEDTAVYYCAVDVSEWYHYDLYYWYYYWGQGTQVTVSS”, the “polyreactivity (PSR sort gate)” value is reported as “high polyreactivity”.

With “QVQLVESGGGLVQAGGSLRLSCAASGSTFKTYAMGWYRQAPGKEREFVASISGSGGSTRYADSVKGRFTISRDNAKNTVYLQMNSLKPEDTAVYYCAARLQKPTNGKGVYYWGQGTQVTVSS” the “polyreactivity (PSR sort gate)” value was “high polyreactivity”.

In the case of “QVQLVESGGGLVQAGGSLRLSCAASGFTFWRNAMGWYRQAPGKERELVAAISASGGSTYYADSVKGRFTISRDYAKNTVYLQKNSLKPEDTAVYYCAADTQGFYRYDYWGQGTQVTVSS”, the “polyreactivity (PSR sort gate)” value is reported as “low polyreactivity”.

With “QVQLVESGGVLVQAGGSLRLSCAASGSTFSRYAMGWYRQAPGKETELVAAINWSGGRTYYADSVKGRFTISRDNAKNTVYLQMNSLIAADTAVYFCAADGRRYSGEYYYWGQGTQVTVSS” the “polyreactivity (PSR sort gate)” value was “high polyreactivity”.

With “QVQHVESGGGLVQAGGSLRLSCAASGIIFPYNAMGWYRQAPGKERELVAAITGGGSTYYADSVKGRFTISRDNAKNTVYLQMNSLKPEDTAVYYCAADRSGPGYDYWGQGTQVTVSS” the “polyreactivity (PSR sort gate)” value was “low polyreactivity”.

For “QVQLVESGGGLVQAGGSLRLSCAASGSIFLRYTMGWYRQAPGKETEFVAAITWTADSTYYADSVKGRFTISRDNAKNTVYLQMNSLKPEDTAVYYCAASYSTIWTLYYYWGQGTQVTVSS”, the “polyreactivity (PSR sort gate)” value was “low polyreactivity”.

For “QVQLVESGGGLVQAGGSLRLSCAASGRTLGYNAVGWYRQAPGKERELVAAINGGDSTYADSVKGRFTISRDNAKNTVYLQMNSLKPEDTAVYYCNALRGGPFRWHGYYYWGQGTQVTVSS”, the “polyreactivity (PSR sort gate)” value was “low polyreactivity”.

With “QVQLVESGGGLVQAGGSLRLSCAASGFTFASNAMGWYRQAPGKERELVADITNTGSTYYADSVKGRFTISRDNAKNTVYLQMNSLKPEDTAVYYCAARSRDVTDGQRISAPHGYWGQGTQVTVSS” the “polyreactivity (PSR sort gate)” value was “low polyreactivity”.

With “QVQLVESGGGLVQAGGSLRLSCAASGIIFPYYAMGWYRQAPGKERELVAAISSRDGRTYYADSVKGRFTISRDNAKNTVYLQMNSLKPEDTAVYYCAARAVGGVRGYRYDYWGQGTQVTVSS” the “polyreactivity (PSR sort gate)” value was “high polyreactivity”.

With “QVQLVESGGGLVQAGGSLRLSCAATGSIINRYVMGWYRQAPGKEREFVAAIRNTGGSTYYADSVKGRFTISRDNAKNTVYLQMNSLKPEDPAVYYCAAVYRSAYDGLDHGYRRHDYWGQGTQVTVSS” the “polyreactivity (PSR sort gate)” value was “high polyreactivity”.

For “QVQLVESGGCLVQAGGSLRLSCAASGRTFRSNAMGWYRQAPGKERELVAAITIGGSTTYADSVKGRFTISRDNAKNTVYLQMISLKREDSAVYYCKARDYYPYDYWGKGTQVTVSS”, the “polyreactivity (PSR sort gate)” value was “high polyreactivity”.

In the case of “QVQLVESGGRLVQAGGSLRLSCAPSGNTFALNAMGWYRQAPGKERELVAAISRRGASTYYADSVKRRFTISRDYAKNTVYIQMNSLKPEDNALDYCAADSGPRVGFFYWGQGTQVTVSS”, the “polyreactivity (PSR sort gate)” value is reported as “high polyreactivity”.

With “QVHLVESGGGLVQAGGSLRLSCAASGSTSYVYAMGWYRKAPGKERELVAAISGSGGRTYYADSVKGRFTISRDNAKNTVYLQMNSLKPEDTAVYYCNALPRPSYPFDYWGQGTQVTVSS” the “polyreactivity (PSR sort gate)” value was “high polyreactivity”.

For “QVQLVESGGGLVQAGGSLLLSCAASGSIFDFYGMGWDRQAPGKERELVATITGTGGGTYYADSVKGRFTISRDNAKNTVYLKMNSLKPEDTAVYYCAADYPYGYWRGLFYYWGQGTQVTVSS”, the “polyreactivity (PSR sort gate)” value was “low polyreactivity”.

For “QVQLVESGGGLVQAGGSLRLSCAASGFTFRYYAMGWYRQAPGTERELVAGITRSGGSTYYADSVKGRFTISRDNAKNTVYLQMNSLKPEDTAVYYCAAYRSIYGTRAPREFESWGQGTQVTVSS”, the “polyreactivity (PSR sort gate)” value was “high polyreactivity”.

With “QVQHVESGGGLVQAGGSLRLSCAASGFIFRRYAMGWYRQAPGKERELVAAISWRSGSTYYADSVKGRFTISRDNAKNTVYLQMNSLKPEDTAVYYCAAKDQATYQLNYWGQGTQVTVSS” the “polyreactivity (PSR sort gate)” value was “high polyreactivity”.

For “QVHLVESGGCLVQAGGSLRLSCAASGRIYRYAMGWYRQAPGKERELVAVITRRGDGTYYADSVKGRFTISRDNAKNTVYLQMNSLKPEDTAVYYCNADQSYKRPWPYDYWGQGTQVTVSS”, the “polyreactivity (PSR sort gate)” value was “high polyreactivity”.

For “QVQLVESGGGLVQAGGSLRLSCAASGSTIGFYAMGWYRQAPGKERELVAVISSSSSTNYADSVKGRFTISRDNAKNTVYLQMNSLKPKIPAVYYCNAKWTTLFDYWGQGTQVTVSS”, the “polyreactivity (PSR sort gate)” value was “high polyreactivity”.

In the case of “QVQLVESGGGLVQAGGSLSLSCAASGSILDRNTMGWYRQAPGKERELVAAITGSGSRTYYADSVKGRFTISRDNAKNTVYLQMNSLKPEDTAVYYCAAYTHSWTGDNYWGQGTQVTVSS”, the “polyreactivity (PSR sort gate)” value is reported as “high polyreactivity”.

For “QVQLVESGGGLVQAGGSLRLSCAASGRIFVRNAMGWYRQAPGKERELVAAITRTGASTYYADSVKGRFTISRDNAKNTVYLQMNSLKPDDTAVYYCAAVWGWPYWVYRYDYWGQGTQVTVSS”, the “polyreactivity (PSR sort gate)” value was “high polyreactivity”.

With “QVQLVESGGGLVQAGGSLRLSCAASGSTFQYYTMGWYRQAPGKERELVAAITRSGGRTYYADSVKGRFTISRDNAKNTVYLQMNSLKPEDTAVYYCAALDSRYSGDDYDSWGQGTQVTVSS” the “polyreactivity (PSR sort gate)” value was “high polyreactivity”.

With “QVQLVESGGGLVQAGGSLRLSCAASGSIFRGYAMGWYRQAPGKERELVAAINSSGGRTYYADSVKGRFTISRDNAKKTVYLQMNSLKPEDTAVYYCNARSKYPSYFSSMGYWGQGTQVTVSS” the “polyreactivity (PSR sort gate)” value was “high polyreactivity”.

With “QVQLVESGGGLVQAGGSLRLSCAASGFTFGQYAMGWYRQAPGKERELVAAIRWSGGSSYYADSVKGRFTISRDNAKNTVYLQMNSLKPEDTAVYYCAARRFDGYEYDYWGQGTQVTVSS” the “polyreactivity (PSR sort gate)” value was “low polyreactivity”.

For “QVQLVESGGGLVQAGGSLRLSCAASGSTFRLNAMGRYRQAPGKERELVAAISRSTGTTHYADSVKGRFTISRDNAKNTVYLQMKSLKPEDTAVYYCATDRAKWHKNGDLGYWGQGTQVTVSS”, the “polyreactivity (PSR sort gate)” value was “low polyreactivity”.

With “QVQLVESGGGLVQAGGSLRLSCAASGFIFTYYTMGWYRPAPGKERELVAAISRTGSTNYADSVKGRFTISRDNAKNTVYLQMNSLKPEDTAVYFCNARYRGWLTLDGGYGYWGQGTQVTVSS” the “polyreactivity (PSR sort gate)” value was “low polyreactivity”.

With “QVQLVESGGGLVQAGGSLRLSCAASGRIFYNYAMGWYRQAPGKERELVAAISGSGGSTYYADSVKGRFTISRDNAKNSVYLQMNSLKPEDTAVYYCSTSGPQYYSRNFDYWGQGTQVTVSS” the “polyreactivity (PSR sort gate)” value was “low polyreactivity”.

For “QVQLVESGGVLVQAGGSLRLSCAASGRTMDPYTMGGYRQAHGKERELVAAITSSGGRTTYADSVKGRFTISRDNAKNYVYLQMNSLKPEDTAVYYCAKKFRPGYRSQYLRYSWGQGTQVTVSS”, the “polyreactivity (PSR sort gate)” value was “low polyreactivity”.

For “QVQLVESGGGLVQAGGSLRLSCAASGRNFGRNGMGWYRQAPGKERELVAAISIGDSTTYADSVKGRFTISRDNAKNTVYLQMNSLKPEDTAVFYCAAELERYPVWEYRGKYDYWGQGTQVTVSS”, the “polyreactivity (PSR sort gate)” value was “low polyreactivity”.

For “QVQLVESGGGLVQAGGSLRLSCAASGRTFSYNAMGWYRQAPGKERELVAAITGRGGSTYYADSVKGRFTISRDNAKHTVYLQMNSLKPEDTAVYYCNAPPGTFQWQGHSDYWGQGTQVTVSS”, the “polyreactivity (PSR sort gate)” value was “low polyreactivity”.

For “QVQLVESGGGLVQAGGSLRLSCAASGFTFRRYAMGWYRQAPGKERELVAGITGRGGSTYYADSVKGRFTISRDNAKNTVYLQMNSLKPEDTAVYYCNKPRAARGYLTGQLDYWGQGTQVTVSS”, the “polyreactivity (PSR sort gate)” value was “high polyreactivity”.

For “QVQLVESGGGLVQAGGSLRLSCAASGITFYGYAMGWYRQAPGKERELVARITISGRTNYADYVKGRFTISRDNAKNTVYLQMNSLKPEDTAVYYCNAVYRGYYSGELDYWGQGTQVTVSS”, the “polyreactivity (PSR sort gate)” value was “high polyreactivity”.

In the case of “QVQLVESGGGLVQAGGSLRLSCAASGFTFLYYAMGWYRQAPGKEREVVAAISSGGSTYYADSVKGRFTISRDNAKNTVYLQMNSLKPEDTAVYYCNVRYTRNRWQYDYWGQGSQVTVSS”, the “polyreactivity (PSR sort gate)” value is reported as “high polyreactivity”.

For “QVQLVESGGGLVQAGGSLRLSCAASGLTFGYNAMGWYRQAPGKERELVAAISSNGGRTYYADSVKGRFTISRDNAKNTVYLQMNSLKPEDTAVYYCNVVYSRSRPYDYWGQGTQVTVSS”, the “polyreactivity (PSR sort gate)” value was “high polyreactivity”.

For “QVQLEESGGGLVQAGGSLRLSCAASGIIFAYYAMGWYRQAPGKERELVGTNYADSVKGRFTISRDNAKNTVYLQMNSLKPEDTAVYYCAVVGGEFSSYGYWGQGTLVTVSS”, the “polyreactivity (PSR sort gate)” value was “low polyreactivity”.

For “QVQIVESWGGLVQAGGSLRLSCDASGSIFTNANGWYRQAPGKERELVAAISSSGGSTYYADSVKGRFTISRDNAKNTVYLQMNSLKPEDTAVYYCAADHYGGRDYWGQGTQVTVSS”, the “polyreactivity (PSR sort gate)” value was “low polyreactivity”.

With “QVQLVESGGGLVQAGGSLRLSCAASVRIFGYYAMGWNRQAPGTERELVATINSVGSTNYADSVKGRFTISRDNAKNTVYLQMNSLKPEDTAVYYCATDSAYTFFTYRLWRHGYWGQGTQVTVSS” the “polyreactivity (PSR sort gate)” value was “low polyreactivity”.

With “QVQLVESGGGLVQAGGSLRLSCAASGRTFVSYAMGWYRPAPGKERELVAGISWSGDSTYYADSVKGRFTISRDNAKNTVYLEMNSLKPEDSAVYYCAAYGPFIYGGHHYNYWGQGTQVTVSS” the “polyreactivity (PSR sort gate)” value was “low polyreactivity”.

In the case of “QVHLVESGGGLVQAGGSLRLSFAASGRIFDLYTMGWYRQAPGKERELVAAIRWSDGSTYYADSVKGRFTISRDNAKNTVYLQMNSLKPEDTAVYYCAADTRTSYYNDDYDYWGQGTQVTVSS”, the “polyreactivity (PSR sort gate)” value is reported as “low polyreactivity”.

With “QVQLVESGGGLVQEGGCLRLSSAASGSIFKSNAMGWYRQAPGKERELVATISRIGGSTYYADSVKGRFTISRDNAKNTVYLQMNCLKPEDTAVYYFAARRYLYTVGYGPRRGLVYWGQGTQVTVSS” the “polyreactivity (PSR sort gate)” value was “high polyreactivity”.

In the case of “QVQLVESGGGLVQAGGSLRLSCAASGSIFGPYAMGWYRPAPGKEREFVAAISGSGGSTYYEDSVKGRFTISRDNAKNTVYLQKNSLTPEDTAVYYCAARQAYVNRGRFRGATLDYWGQGTQVTVSS”, the “polyreactivity (PSR sort gate)” value is reported as “high polyreactivity”.

For “QVQLVESGGGLVQAGGSLRLSCAASGGTFYPYAMGWYREAPGKEWELVAAISTSGGITYYADSVKGRFTISRDNAKNTVYLQMNSLKPEDTAVYYCAKVLRDYYTYYRWQYREFGYWGQGTQVTVSS”, the “polyreactivity (PSR sort gate)” value was “high polyreactivity”.

For “QVQLQESGGGLMQAGGSQRLSCAESGSISYYSDMGWYRQAPGKEREFVAGIGYGTTTNYADSVKGRFTTSRDNAKNTVYLQMISMKPEDTAVYSCAAYQGNGYEFYYWGQGTQVTVRS”, the “polyreactivity (PSR sort gate)” value was “low polyreactivity”.

Reference: the nanobody polyreactivity screen of Harvey et al. (2022)
